Source: the nanobody polyreactivity screen of Harvey et al. (2022)

Experiment: yeast display, Sf9 membrane polyspecificity reagent, FACS + sequencing; frameworks hold sequencing errors
Method in brief: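 Using colony PCR, genes from sorted yeast display clones were amplified, then sequenced on MiSeq at 2 × 250 and filtered by CDR length. The clones had been stained with 10% biotinylated, detergent-solubilized Sf9 membrane reagent for 1 hour at 4 °C and sorted by FACS into low and high (top ~1%) gates on anti-HA and streptavidin fluorescence. Polyreactivity labels come from the gate of origin.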

Row | Sequence | polyreactivity (PSR sort gate)
1 | QVHLVESGGGLVQAGGSLRLSCAASGSTFVGNAMGWNRKAPGKERELVATISNSGGRTYYADSVKGPFTISRDNAKNTVYLEMNSLKPEDTAVYYCAADHPAFGPVYSFDYWGQGTQVTVSS | low polyreactivity
2 | QVQLVESGGGLVQAGGSLRFSCAASGRIFDYYAMGGYRQAPGKERELVATINVSDGSTYYADSVKGRFTISRDNAKNTVYLQMNSLKPEDTAVYYCAAAGWVPFDSLDLNYWGQGTQVTVSS | low polyreactivity
3 | QVQLVESGGGLVQAGGSLRLSCAASGSTFRIYVMGWYRQAPGKEREFVAAISRGGGSTYYADSVKGRFTISRDNAKNTVYLQMNSLKPEDTAVYYCAAVTRDYGSRSGLDYWGQGTQVTVSS | high polyreactivity
4 | QVQLVESGGGLVQAGGSLRLSSAASRITFDQNAMGWYRQAPGKERELVAAITRGSSTNYADSVKGRFTISRDNAKNTVYLQMNSLKPEDTAVYYCNADGYARFRTYYSRDTREYDYWGQGTQVTVSS | low polyreactivity
5 | QVQLVESGGGLVQAGGSLRLSCAASGRIFVQNAMGWYRQAPGKERELVAAINWSVGSTYYADSVKGRFTISRDNAKNTVYLQMNSLKPEDTAVYYCAAGNLYYAEYDYWGQGTQVTVSS | low polyreactivity
6 | QVQLVESGGGLVQAGGSLRLSCAASGSIFELNAMGWSRQAPGKERELVAAITSSGSSTYYADSVKGRFTISRDNAKNTVYLQMNSLKPEDTAVYYCARDAFEPYDVGEYYYWGQGTQVTVSS | low polyreactivity
7 | QVQLVESGGGLVQAGGSLRLSCAASGSIYRYAMGSYRQAPGKERELVAAINFNGGRTYYADSVKGRFTISRDNAKNTVYLQMNSLKPEDTAVYYCAAVRSSNQGGFDYWGQGTQVTVSS | high polyreactivity
8 | QVQLVESGGGLDQAGGSLRLSCAASGSTFYAYAMGWYRQAPGKERELVAANSSDGTNYADSVKGRFTLSRDNAKNTVYLQMNSLKPEDTAVYYCAKDSVWGAKNLTSYKYYYWGQGTQVTVSS | low polyreactivity
9 | QVQLVESGGGLVQAGGSLRLSCAASGRIFLFNAMGWYRQAPGKEREFVAAISASGGSTYYADSVKGRFTISRDNAKNTVYLQMNSLKPEDTAVYYCAADYLYTRDVDYDYWGQGTQVTVSS | low polyreactivity
10 | QVQLVESGGGLVQAGGSLRLSCAASGRIIEHNAMGWYRQAPGKERELVAAINYSGGSTYYADSVKGRFTISRDNAKNTVYLQMNSLKPEDTAVYYCATRTGHWGQGTQVTVSS | low polyreactivity
11 | QVQLVESGGGLVQAGGSLRLSCAASGITFDLYAMGWYRQAPGKERELVAAISISSTSTYYADSVKGRFTISRDNAKNTVYLQMNSLKPEDTAVYYCNAVPSSKTFWFDYWGQGTQVTVSS | low polyreactivity
12 | QVQLVESGGGLVQAGGSLRLSCAASGSTFRSYAMGWYRQAPGKERELVAVISSGDSTYYADSVKGRFTISRDNAKNTVYLQMNSLKPEDTAVYYSAADSYVLGRWYGYWGQGTQVTVSS | low polyreactivity
13 | QVQLVESGGGLVQAGGSLRLSCAASGSIFRNYAMGWYRQAPGKERELVAAITSIGGGTYYADSVKGRFTISRDNAKNTVYLQMNSLKPEDTAVYYCAAVSGPFVQTSGNGEYDYWGQGTQVTVSS | low polyreactivity
14 | QVQLVESGGGLVQAGGSLRLSCAASGRTFLINAMGWYRQAPGKERELVAAITQSGGSTYYADSVKGRFTISRDNAKNTVYLQMNSLKPEDTAVYYCNAQSWYIVPYDYWGQGTQVTVSS | low polyreactivity
15 | QVQLVESGGGLVQAGVSLRLSCAASGIIFRGNAMGWYRQAPGKERELVASICRRGGSTYYADSVKGRFTISRDNAKNTVYLQMNSLKPEDTAVYYCNAYGSTYVYGPYDYWGQGTQVTVSS | high polyreactivity
16 | QVQLVESGGGLVQAGGSLRLSCAASGSILRSNAMGWYRQAPGKERELVAVISNDDSTYYADSVKGRFTISRDNATNTVYLQMNSLKPEDTAVYYCNAVYYYFFRWHPIYDSWGQGTQVTVSS | low polyreactivity
17 | QVQLVESGGGLVQAGGSLRLSCAASGFILGGYAMGWYRQAPGKERELVAAISWSSGSTYYADSVKGRFTISRDNAKTTVYLQLNSLKPEDTAVYYCAAVGAYDYWGQGTQVTVSS | low polyreactivity
